Test results as given in patent US20190300618A1 (Merck Sharp & Dohme, published 2019).

What was measured:
W90A = target: T1, W90A; test: flow cytometry, CHO-K1; sub-column 2 of 2
T1 construct: also called hCD27 W90A
T1 receptor: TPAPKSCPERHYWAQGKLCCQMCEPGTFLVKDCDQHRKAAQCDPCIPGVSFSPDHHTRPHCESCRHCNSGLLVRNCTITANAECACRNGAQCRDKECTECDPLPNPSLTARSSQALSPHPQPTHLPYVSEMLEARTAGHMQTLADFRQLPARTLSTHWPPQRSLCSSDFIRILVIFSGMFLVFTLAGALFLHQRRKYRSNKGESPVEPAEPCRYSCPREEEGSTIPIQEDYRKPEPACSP

S63A = target: T2, S63A; test: flow cytometry, CHO-K1; sub-column 2 of 2
T2 construct: also called hCD27 S63A
T2 receptor: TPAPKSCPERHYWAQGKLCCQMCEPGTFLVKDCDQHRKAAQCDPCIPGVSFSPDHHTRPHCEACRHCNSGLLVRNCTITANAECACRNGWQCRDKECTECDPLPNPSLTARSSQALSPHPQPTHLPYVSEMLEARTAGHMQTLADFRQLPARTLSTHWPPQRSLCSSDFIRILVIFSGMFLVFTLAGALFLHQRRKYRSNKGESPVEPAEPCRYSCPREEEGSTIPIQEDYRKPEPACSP

N88A = target: T3, N88A; test: flow cytometry, CHO-K1; sub-column 2 of 2
T3 construct: also called hCD27 N88A
T3 receptor: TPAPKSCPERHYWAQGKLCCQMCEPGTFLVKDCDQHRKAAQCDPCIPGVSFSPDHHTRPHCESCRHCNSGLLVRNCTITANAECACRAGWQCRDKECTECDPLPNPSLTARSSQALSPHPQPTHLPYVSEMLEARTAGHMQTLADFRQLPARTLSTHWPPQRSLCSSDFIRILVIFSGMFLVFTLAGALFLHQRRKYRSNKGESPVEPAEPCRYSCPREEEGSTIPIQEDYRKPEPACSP

Q15A = target: T4, Q15A; test: flow cytometry, CHO-K1; sub-column 1 of 2
T4 construct: also called hCD27 Q15A
T4 receptor: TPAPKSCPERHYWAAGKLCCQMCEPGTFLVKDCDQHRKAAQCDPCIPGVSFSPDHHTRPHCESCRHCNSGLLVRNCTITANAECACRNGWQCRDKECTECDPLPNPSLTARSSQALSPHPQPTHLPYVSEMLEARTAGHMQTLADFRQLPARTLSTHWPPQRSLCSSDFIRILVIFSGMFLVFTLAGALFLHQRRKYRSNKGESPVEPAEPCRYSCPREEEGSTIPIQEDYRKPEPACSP

R87A = target: T5, R87A; test: flow cytometry, CHO-K1; sub-column 1 of 2
T5 construct: also called hCD27 R87A
T5 receptor: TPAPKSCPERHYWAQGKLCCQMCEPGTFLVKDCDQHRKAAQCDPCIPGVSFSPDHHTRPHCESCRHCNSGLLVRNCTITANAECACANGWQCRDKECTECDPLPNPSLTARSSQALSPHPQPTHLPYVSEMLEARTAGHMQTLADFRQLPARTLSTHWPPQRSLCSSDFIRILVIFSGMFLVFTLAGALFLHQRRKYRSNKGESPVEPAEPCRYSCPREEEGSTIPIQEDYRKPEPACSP

R93A = target: T6, R93A; test: flow cytometry, CHO-K1; sub-column 1 of 2
T6 construct: also called hCD27 R93A
T6 receptor: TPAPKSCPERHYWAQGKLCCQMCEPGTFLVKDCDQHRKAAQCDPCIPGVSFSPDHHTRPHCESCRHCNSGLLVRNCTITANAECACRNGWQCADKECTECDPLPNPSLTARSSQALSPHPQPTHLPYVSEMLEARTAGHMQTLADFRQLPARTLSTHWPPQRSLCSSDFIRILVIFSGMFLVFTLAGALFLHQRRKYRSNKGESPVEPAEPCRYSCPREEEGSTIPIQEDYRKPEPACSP

H36A = target: T7, H36A; test: flow cytometry, CHO-K1; sub-column 1 of 2
T7 construct: also called hCD27 H36A
T7 receptor: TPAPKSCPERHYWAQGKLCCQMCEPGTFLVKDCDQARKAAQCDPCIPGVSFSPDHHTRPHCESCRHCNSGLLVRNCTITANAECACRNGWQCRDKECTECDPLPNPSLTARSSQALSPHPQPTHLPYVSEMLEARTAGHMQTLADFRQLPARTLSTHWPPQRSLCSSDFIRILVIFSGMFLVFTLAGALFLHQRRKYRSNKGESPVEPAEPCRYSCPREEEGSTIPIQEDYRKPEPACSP

P8A = target: T8, P8A; test: flow cytometry, CHO-K1; sub-column 1 of 2
T8 construct: also called hCD27 P8A
T8 receptor: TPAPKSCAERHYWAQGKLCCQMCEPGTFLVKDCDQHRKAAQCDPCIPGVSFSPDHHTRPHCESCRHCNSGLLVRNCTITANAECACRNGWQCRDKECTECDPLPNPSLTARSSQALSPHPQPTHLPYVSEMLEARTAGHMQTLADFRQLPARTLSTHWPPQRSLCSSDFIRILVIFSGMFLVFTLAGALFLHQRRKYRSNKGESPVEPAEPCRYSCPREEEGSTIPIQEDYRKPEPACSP

K38A = target: T9, K38A; test: flow cytometry, CHO-K1; sub-column 1 of 2
T9 construct: also called hCD27 K38A
T9 receptor: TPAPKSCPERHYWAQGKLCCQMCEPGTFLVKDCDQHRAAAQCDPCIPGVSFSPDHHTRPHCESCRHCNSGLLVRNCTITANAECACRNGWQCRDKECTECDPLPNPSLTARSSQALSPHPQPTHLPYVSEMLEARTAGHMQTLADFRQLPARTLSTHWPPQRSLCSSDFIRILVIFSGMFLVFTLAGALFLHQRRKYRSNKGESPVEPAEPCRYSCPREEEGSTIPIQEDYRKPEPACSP

H60A = target: T10, H60A; test: flow cytometry, CHO-K1; sub-column 1 of 2
T10 construct: also called hCD27 H60A
T10 receptor: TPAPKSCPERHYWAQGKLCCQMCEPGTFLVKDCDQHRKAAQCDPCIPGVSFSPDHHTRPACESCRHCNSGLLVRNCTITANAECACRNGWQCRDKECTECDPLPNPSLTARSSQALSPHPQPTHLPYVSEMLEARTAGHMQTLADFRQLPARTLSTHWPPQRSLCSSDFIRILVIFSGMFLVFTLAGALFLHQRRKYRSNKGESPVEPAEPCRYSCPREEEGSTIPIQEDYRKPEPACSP

1A4 (mouse IgG1) (antibody)
% of WT hCD27 binding (geo mean FITC) (W90A): 96.4% | % of WT hCD27 binding (geo mean FITC) (S63A): 163% | % of WT hCD27 binding (geo mean FITC) (N88A): 116% | % of WT hCD27 binding (geo mean FITC) (Q15A): 32% | % of WT hCD27 binding (geo mean FITC) (R87A): 143% | % of WT hCD27 binding (geo mean FITC) (R93A): 120% | % of WT hCD27 binding (geo mean FITC) (H36A): 111% | % of WT hCD27 binding (geo mean FITC) (P8A): 84.5% | % of WT hCD27 binding (geo mean FITC) (K38A): 104% | % of WT hCD27 binding (geo mean FITC) (H60A): 167%

9F4 (mouse IgG2a) (antibody)
% of WT hCD27 binding (geo mean FITC) (W90A): 85.7% | % of WT hCD27 binding (geo mean FITC) (S63A): 149% | % of WT hCD27 binding (geo mean FITC) (N88A): 104% | % of WT hCD27 binding (geo mean FITC) (Q15A): 107% | % of WT hCD27 binding (geo mean FITC) (R87A): 153% | % of WT hCD27 binding (geo mean FITC) (R93A): 122% | % of WT hCD27 binding (geo mean FITC) (H36A): 88.5% | % of WT hCD27 binding (geo mean FITC) (P8A): 68.5% | % of WT hCD27 binding (geo mean FITC) (K38A): 44.7% | % of WT hCD27 binding (geo mean FITC) (H60A): 185%

B1: Antibody hCD27.131A (mouse parental 131A) (antibody, V domains shown)
VH: QIQLVQSGPELKKPGETVKISCKASGYTFTNYGMNWVKQAPGKGLKWMGWINTNTGEPTYAEEFKGRFAFSLETSATTAYLQINNLKNEDTATYFCAREGDAMDYWGQGTSVTVSS
VL: QIVLTQSPAIMSASPGEKVTMTCSASSSVSYMHWYQQKSGTSPKRWIYDTSKLASGVPARFSGSGSGTSYSLTISSMEAEDAATYYCQQWNSYPFTFGSGTKLEIK
notes: mouse IgG1; also called mouse hCD27.131A
% of WT hCD27 binding (geo mean FITC) (W90A): 102% | % of WT hCD27 binding (geo mean FITC) (S63A): 141% | % of WT hCD27 binding (geo mean FITC) (N88A): 124% | % of WT hCD27 binding (geo mean FITC) (Q15A): 99.6% | % of WT hCD27 binding (geo mean FITC) (R87A): 153% | % of WT hCD27 binding (geo mean FITC) (R93A): 125% | % of WT hCD27 binding (geo mean FITC) (H36A): 54.1% | % of WT hCD27 binding (geo mean FITC) (P8A): 44.9% | % of WT hCD27 binding (geo mean FITC) (K38A): 48.2% | % of WT hCD27 binding (geo mean FITC) (H60A): 178%
